According to the supplement of paper PMC10567573:

B1: GALNT9 (parent)
chain: FTQSGPIVSRATGRCLEVEMSKDA

Variants of: B1
Assay: protein stability index of a GFP-peptide fusion (GPS, HEK-293T) (PSI 1-6); higher = more stable
Conditions: c terminus: a fixed tail appended
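Further: lentivirally expressed fusions sorted by FACS into six bins by GFP to DsRed ratio, PSI derived from sequencing read proportions per bin multiplied by bin number.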

Row | Variant | protein stability index
1 | FTQSGPIVSRATGYCLEVEMSKDA [R14Y] | 1.82
2 | FTQSGPIVSRATGRDLEVEMSKDA [C15D] | 3.9
3 | FTQSGPIVSRATGRFLEVEMSKDA [C15F] | 2.44
4 | FTQSGPIVSRATGRHLEVEMSKDA [C15H] | 3.37
5 | FTQSGPIVSRATGRILEVEMSKDA [C15I] | 2.7
6 | FTQSGPIVSRATGRKLEVEMSKDA [C15K] | 2.53
7 | FTQSGPIVSRATGRLLEVEMSKDA [C15L] | 4.19
8 | FTQSGPIVSRATGRMLEVEMSKDA [C15M] | 2.78
9 | FTQSGPIVSRATGRNLEVEMSKDA [C15N] | 3.75
10 | FTQSGPIVSRATGRPLEVEMSKDA [C15P] | 3.11
11 | FTQSGPIVSRATGRQLEVEMSKDA [C15Q] | 3.14
12 | FTQSGPIVSRATGRRLEVEMSKDA [C15R] | 3.86
13 | FTQSGPIVSRATGRSLEVEMSKDA [C15S] | 2.7
14 | FTQSGPIVSRATGRTLEVEMSKDA [C15T] | 2.99
15 | FTQSGPIVSRATGRVLEVEMSKDA [C15V] | 3.06
16 | FTQSGPIVSRATGRYLEVEMSKDA [C15Y] | 3.04
17 | FTQSGPIVSRATGRCAEVEMSKDA [L16A] | 1.96
18 | FTQSGPIVSRATGRCCEVEMSKDA [L16C] | 2.08
19 | FTQSGPIVSRATGRCDEVEMSKDA [L16D] | 3.53
20 | FTQSGPIVSRATGRCEEVEMSKDA [L16E] | 3.65
21 | FTQSGPIVSRATGRCFEVEMSKDA [L16F] | 2.37
22 | FTQSGPIVSRATGRCGEVEMSKDA [L16G] | 2.52
23 | FTQSGPIVSRATGRCHEVEMSKDA [L16H] | 2.81
24 | FTQSGPIVSRATGRCIEVEMSKDA [L16I] | 1.4

Row | Variant | protein stability index
25 | FTQSGPIVSRATGRCKEVEMSKDA [L16K] | 2.27
26 | FTQSGPIVSRATGRCMEVEMSKDA [L16M] | 2.29
27 | FTQSGPIVSRATGRCNEVEMSKDA [L16N] | 3.04
28 | FTQSGPIVSRATGRCPEVEMSKDA [L16P] | 3.02
29 | FTQSGPIVSRATGRCQEVEMSKDA [L16Q] | 2.81
30 | FTQSGPIVSRATGRCREVEMSKDA [L16R] | 3.09
31 | FTQSGPIVSRATGRCSEVEMSKDA [L16S] | 1.75
32 | FTQSGPIVSRATGRCTEVEMSKDA [L16T] | 3.25
33 | FTQSGPIVSRATGRCVEVEMSKDA [L16V] | 2.33
34 | FTQSGPIVSRATGRCWEVEMSKDA [L16W] | 2.35
35 | FTQSGPIVSRATGRCYEVEMSKDA [L16Y] | 1.99
36 | FTQSGPIVSRATGRCLAVEMSKDA [E17A] | 1.03
37 | FTQSGPIVSRATGRCLCVEMSKDA [E17C] | 1.84
38 | FTQSGPIVSRATGRCLDVEMSKDA [E17D] | 1.91
39 | FTQSGPIVSRATGRCLFVEMSKDA [E17F] | 3.92
40 | FTQSGPIVSRATGRCLGVEMSKDA [E17G] | 2.09
41 | FTQSGPIVSRATGRCLKVEMSKDA [E17K] | 2.41
42 | FTQSGPIVSRATGRCLNVEMSKDA [E17N] | 3.09
43 | FTQSGPIVSRATGRCLPVEMSKDA [E17P] | 2.05
44 | FTQSGPIVSRATGRCLQVEMSKDA [E17Q] | 2.94
45 | FTQSGPIVSRATGRCLRVEMSKDA [E17R] | 5.49
46 | FTQSGPIVSRATGRCLSVEMSKDA [E17S] | 2.15
47 | FTQSGPIVSRATGRCLVVEMSKDA [E17V] | 1.24
48 | FTQSGPIVSRATGRCLYVEMSKDA [E17Y] | 3.5

Row | Variant | protein stability index
49 | FTQSGPIVSRATGRCLEAEMSKDA [V18A] | 1.61
50 | FTQSGPIVSRATGRCLEDEMSKDA [V18D] | 2.53
51 | FTQSGPIVSRATGRCLEEEMSKDA [V18E] | 1.01
52 | FTQSGPIVSRATGRCLEFEMSKDA [V18F] | 2.61
53 | FTQSGPIVSRATGRCLEHEMSKDA [V18H] | 1.81
54 | FTQSGPIVSRATGRCLEIEMSKDA [V18I] | 2.32
55 | FTQSGPIVSRATGRCLEKEMSKDA [V18K] | 3.26
56 | FTQSGPIVSRATGRCLELEMSKDA [V18L] | 1.79
57 | FTQSGPIVSRATGRCLEMEMSKDA [V18M] | 1.92
58 | FTQSGPIVSRATGRCLENEMSKDA [V18N] | 2.55
59 | FTQSGPIVSRATGRCLEPEMSKDA [V18P] | 2.59
60 | FTQSGPIVSRATGRCLEQEMSKDA [V18Q] | 2.31
61 | FTQSGPIVSRATGRCLEREMSKDA [V18R] | 1.94
62 | FTQSGPIVSRATGRCLETEMSKDA [V18T] | 2.02
63 | FTQSGPIVSRATGRCLEWEMSKDA [V18W] | 1.74
64 | FTQSGPIVSRATGRCLEYEMSKDA [V18Y] | 1.94
65 | FTQSGPIVSRATGRCLEVAMSKDA [E19A] | 2.49
66 | FTQSGPIVSRATGRCLEVDMSKDA [E19D] | 2.02
67 | FTQSGPIVSRATGRCLEVFMSKDA [E19F] | 2.37
68 | FTQSGPIVSRATGRCLEVGMSKDA [E19G] | 2.19
69 | FTQSGPIVSRATGRCLEVHMSKDA [E19H] | 1.62
70 | FTQSGPIVSRATGRCLEVIMSKDA [E19I] | 1.71
71 | FTQSGPIVSRATGRCLEVKMSKDA [E19K] | 2.33
72 | FTQSGPIVSRATGRCLEVLMSKDA [E19L] | 2.39

Row | Variant | protein stability index
73 | FTQSGPIVSRATGRCLEVMMSKDA [E19M] | 3.89
74 | FTQSGPIVSRATGRCLEVNMSKDA [E19N] | 1.62
75 | FTQSGPIVSRATGRCLEVPMSKDA [E19P] | 2.57
76 | FTQSGPIVSRATGRCLEVRMSKDA [E19R] | 3.07
77 | FTQSGPIVSRATGRCLEVSMSKDA [E19S] | 1.35
78 | FTQSGPIVSRATGRCLEVTMSKDA [E19T] | 1.22
79 | FTQSGPIVSRATGRCLEVVMSKDA [E19V] | 1.45
80 | FTQSGPIVSRATGRCLEVYMSKDA [E19Y] | 1.53
81 | FTQSGPIVSRATGRCLEVEASKDA [M20A] | 3.61
82 | FTQSGPIVSRATGRCLEVECSKDA [M20C] | 1.89
83 | FTQSGPIVSRATGRCLEVEDSKDA [M20D] | 4.53
84 | FTQSGPIVSRATGRCLEVEESKDA [M20E] | 3.66
85 | FTQSGPIVSRATGRCLEVEFSKDA [M20F] | 1.93
86 | FTQSGPIVSRATGRCLEVEGSKDA [M20G] | 3.21
87 | FTQSGPIVSRATGRCLEVEHSKDA [M20H] | 2.65
88 | FTQSGPIVSRATGRCLEVEISKDA [M20I] | 2.28
89 | FTQSGPIVSRATGRCLEVEKSKDA [M20K] | 2.32
90 | FTQSGPIVSRATGRCLEVELSKDA [M20L] | 3.75
91 | FTQSGPIVSRATGRCLEVENSKDA [M20N] | 3.34
92 | FTQSGPIVSRATGRCLEVEPSKDA [M20P] | 3.38
93 | FTQSGPIVSRATGRCLEVEQSKDA [M20Q] | 3.23
94 | FTQSGPIVSRATGRCLEVERSKDA [M20R] | 2.73
